Results published in IntAct's records for PubMed 22582013.

B1: Extracellular serine/threonine protein kinase FAM20C (Homo sapiens), Q8IXL6 (parent)
chain: MKMMLVRRFRVLILMVFLVACALHIALDLLPRLERRGARPSGEPGCSCAQPAAEVAAPGWAQVRGRPGEPPAASSAAGDAGWPNKHTLRILQDFSSDPSSNLSSHSLEKLPPAAEPAERALRGRDPGALRPHDPAHRPLLRDPGPRRSESPPGPGGDASLLARLFEHPLYRVAVPPLTEEDVLFNVNSDTRLSPKAAENPDWPHAGAEGAEFLSPGEAAVDSYPNWLKFHIGINRYELYSRHNPAIEALLHDLSSQRITSVAMKSGGTQLKLIMTFQNYGQALFKPMKQTREQETPPDFFYFSDYERHNAEIAAFHLDRILDFRRVPPVAGRMVNMTKEIRDVTRDKKLWRTFFISPANNICFYGECSYYCSTEHALCGKPDQIEGSLAAFLPDLSLAKRKTWRNPWRRSYHKRKKAEWEVDPDYCEEVKQTPPYDSSHRILDVMDMTIFDFLMGNMDRHHYETFEKFGNETFIIHLDNGRGFGKYSHDELSILVPLQQCCRIRKSTYLRLQLLAKEEYKLSLLMAESLRGDQVAPVLYQPHLEALDRRLRVVLKAVRDCVERNGLHSVVDDDLDTEHRAASAR

Variants of: B1
Settings: with ostp_human SPP1, P10451
Sequence of ostp_human SPP1, P10451 (P10451 whole entry): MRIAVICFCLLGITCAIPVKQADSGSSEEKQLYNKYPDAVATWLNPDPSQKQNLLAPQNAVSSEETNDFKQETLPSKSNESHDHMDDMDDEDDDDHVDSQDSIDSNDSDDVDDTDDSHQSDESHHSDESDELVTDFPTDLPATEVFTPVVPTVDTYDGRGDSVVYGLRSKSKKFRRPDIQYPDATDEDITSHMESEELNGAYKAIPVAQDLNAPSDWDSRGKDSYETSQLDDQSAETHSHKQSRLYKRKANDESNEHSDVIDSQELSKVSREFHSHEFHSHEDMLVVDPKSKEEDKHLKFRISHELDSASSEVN

Effect of a mutation on the interaction, with no effect:
MKMMLVRRFRVLILMVFLVACALHIALDLLPRLERRGARPSGEPGCSCAQPAAEVAAPGWAQVRGRPGEPPAASSAAGDAGWPNKHTLRILQDFSSDPSSNLSSHSLEKLPPAAEPAERALRGRDPGALRPHDPAHRPLLRDPGPRRSESPPGPGGDASLLARLFEHPLYRVAVPPLTEEDVLFNVNSDTRLSPKAAENPDWPHAGAEGAEFLSPGEAAVDSYPNWLKFHIGINRYELYSRHNPAIEALLHDLSSQRITSVAMKSGGTQLKLIMTFQNYGQALFKPMKQTREQETPPDFFYFSDYERHNAEIAAFHLDRILDFRRVPPVAGRMVNMTKEIRDVTRDKKLWRTFFISPANNICFYGECSYYCSTEHALCEKPDQIEGSLAAFLPDLSLAKRKTWRNPWRRSYHKRKKAEWEVDPDYCEEVKQTPPYDSSHRILDVMDMTIFDFLMGNMDRHHYETFEKFGNETFIIHLDNGRGFGKYSHDELSILVPLQQCCRIRKSTYLRLQLLAKEEYKLSLLMAESLRGDQVAPVLYQPHLEALDRRLRVVLKAVRDCVERNGLHSVVDDDLDTEHRAASAR [G379E]
MKMMLVRRFRVLILMVFLVACALHIALDLLPRLERRGARPSGEPGCSCAQPAAEVAAPGWAQVRGRPGEPPAASSAAGDAGWPNKHTLRILQDFSSDPSSNLSSHSLEKLPPAAEPAERALRGRDPGALRPHDPAHRPLLRDPGPRRSESPPGPGGDASLLARLFEHPLYRVAVPPLTEEDVLFNVNSDTRLSPKAAENPDWPHAGAEGAEFLSPGEAAVDSYPNWLKFHIGINRYELYSRHNPAIEALLHDLSSQRITSVAMKSGGTQLKLIMTFQNYGQALFKPMKQTREQETPPDFFYFSDYERHNAEIAAFHLDRILDFRRVPPVAGRMVNMTKEIRDVTRDKKLWRTFFISPANNICFYGECSYYCSTEHALCRKPDQIEGSLAAFLPDLSLAKRKTWRNPWRRSYHKRKKAEWEVDPDYCEEVKQTPPYDSSHRILDVMDMTIFDFLMGNMDRHHYETFEKFGNETFIIHLDNGRGFGKYSHDELSILVPLQQCCRIRKSTYLRLQLLAKEEYKLSLLMAESLRGDQVAPVLYQPHLEALDRRLRVVLKAVRDCVERNGLHSVVDDDLDTEHRAASAR [G379R]
MKMMLVRRFRVLILMVFLVACALHIALDLLPRLERRGARPSGEPGCSCAQPAAEVAAPGWAQVRGRPGEPPAASSAAGDAGWPNKHTLRILQDFSSDPSSNLSSHSLEKLPPAAEPAERALRGRDPGALRPHDPAHRPLLRDPGPRRSESPPGPGGDASLLARLFEHPLYRVAVPPLTEEDVLFNVNSDTRLSPKAAENPDWPHAGAEGAEFLSPGEAAVDSYPNWLKFHIGINRYELYSRHNPAIEALLHDLSSQRITSVAMKSGGTQLKLIMTFQNYGQALFKPMKQTREQETPPDFFYFSDYERHNAEIAAFHLDRILDFRRVPPVAGRMVNMTKEIRDVTRDKKLWRTFFISPANNICFYGECSYYCSTEHALCGKPDQIEGSLAAFLPDLSLAKRKTWRNPWRRSYHKRKKAEWEVDPDYCEEVKQTPPYDSSHRILDVMDMTIFDFLMGNMDRHHYETFEKFGNETFIIHLDNGRGFGKYSHDELSILVPLQQCCRIRKSTYLRLQLLAKEEYKLSLLMAESLRGDQVAPVLYQPHLEALDRWLRVVLKAVRDCVERNGLHSVVDDDLDTEHRAASAR [R549W]
MKMMLVRRFRVLILMVFLVACALHIALDLLPRLERRGARPSGEPGCSCAQPAAEVAAPGWAQVRGRPGEPPAASSAAGDAGWPNKHTLRILQDFSSDPSSNLSSHSLEKLPPAAEPAERALRGRDPGALRPHDPAHRPLLRDPGPRRSESPPGPGGDASLLARLFEHPLYRVAVPPLTEEDVLFNVNSDTRLSPKAAENPDWPHAGAEGAEFLSPGEAAVDSYPNWLKFHIGINRYELYSRHNPAIEALLHDLSSQRNTSVAMKSGGTQLKLIMTFQNYRQALFKPMKQTREQETPPDFFYFSDYERHNAEIAAFHLDRILDFRRVPPVAGRMVNMTKEIRDVTRDKKLWRTFFISPANNICFYGECSYYCSTEHALCGKPDQIEGSLAAFLPDLSLAKRKTWRNPWRRSYHKRKKAEWEVDPDYCEEVKQTPPYDSSHRILDVMDMTIFDFLMGNMDRHHYETFEKFGNETFIIHLDNGRGFGKYSHDELSILVPLQQCCRIRKSTYLRLQLLAKEEYKLSLLMAESLRGDQVAPVLYQPHLEALDRRLRVVLKAVRDCVERNGLHSVVDDDLDTEHRAASAR [I258N;G280R]
MKMMLVRRFRVLILMVFLVACALHIALDLLPRLERRGARPSGEPGCSCAQPAAEVAAPGWAQVRGRPGEPPAASSAAGDAGWPNKHTLRILQDFSSDPSSNLSSHSLEKLPPAAEPAERALRGRDPGALRPHDPAHRPLLRDPGPRRSESPPGPGGDASLLARLFEHPLYRVAVPPLTEEDVLFNVNSDTRLSPKAAENPDWPHAGAEGAEFLSPGEAAVDSYPNWLKFHIGINRYELYSRHNPAIEALLHDLSSQRITSVAMKSGGTQLKLIMTFQNYGQALFKPMKQTREQETPPDFFYFSDYERHNAEIAAFHLDRILDFRRVPSVAGRMVNMTKEIRDVTRDKKLWRTFFISPANNICFYGECSYYCSTEHALCGKPDQIEGSLAAFLPDLSLAKRKTWRNPWRRSYHKRKKAEWEVDPDYCEEVKQTPPYDSSHRILDVMDMTIFDFLMGNMDRHHYETFEKFGNETFIIHLDNGRGFGKYSHDELSILVPLQQCCRIRKSTYLRLQLLAKEEYKLSLLMAESLRGDQVAPVLYQPHLEALDRRLRVVLKAVRDCVERNGLHSVVDDDLDTEHRAASAR [P328S]
MKMMLVRRFRVLILMVFLVACALHIALDLLPRLERRGARPSGEPGCSCAQPAAEVAAPGWAQVRGRPGEPPAASSAAGDAGWPNKHTLRILQDFSSDPSSNLSSHSLEKLPPAAEPAERALRGRDPGALRPHDPAHRPLLRDPGPRRSESPPGPGGDASLLARLFEHPLYRVAVPPLTEEDVLFNVNSDTRLSPKAAENPDWPHAGAEGAEFLSPGEAAVDSYPNWLKFHIGINRYELYSRHNPAIEALLHDLSSQRITSVAMKSGGTQLKLIMTFQNYGQALFKPMKQTREQETPPDFFYFSDYERHNAEIAAFHLDRILDFRRVPPVAGRMVNMTKEIRDVTRDKKLWRTFFISPANNICFYGECSYYCSTEHALCGKPDQIEGSLAAFLPDLSLAKRKTWRNPWRRSYHKRKKAEWEVDPDYCEEVKQTPPYDSSHRILDVMDMTIFNFLMGNMDRHHYETFEKFGNETFIIHLDNGRGFGKYSHDELSILVPLQQCCRIRKSTYLRLQLLAKEEYKLSLLMAESLRGDQVAPVLYQPHLEALDRRLRVVLKAVRDCVERNGLHSVVDDDLDTEHRAASAR [D451N]
MKMMLVRRFRVLILMVFLVACALHIALDLLPRLERRGARPSGEPGCSCAQPAAEVAAPGWAQVRGRPGEPPAASSAAGDAGWPNKHTLRILQDFSSDPSSNLSSHSLEKLPPAAEPAERALRGRDPGALRPHDPAHRPLLRDPGPRRSESPPGPGGDASLLARLFEHPLYRVAVPPLTEEDVLFNVNSDTRLSPKAAENPDWPHAGAEGAEFLSPGEAAVDSYPNWLKFHIGINRYELYSRHNPAIEALLHDLSSQRITSVAMKSGGTQLKLIMTFQNYGQALFKPMKQTREQETPPDFFYFSDYERHNAEIAAFHLDRILDFRRVPPVAGRMVNMTREIRDVTRDKKLWRTFFISPANNICFYGECSYYCSTEHALCGKPDQIEGSLAAFLPDLSLAKRKTWRNPWRRSYHKRKKAEWEVDPDYCEEVKQTPPYDSSHRILDVMDMTIFDFLMGNMDRHHYETFEKFGNETFIIHLDNGRGFGKYSHDELSILVPLQQCCRIRKSTYLRLQLLAKEEYKLSLLMAESLRGDQVAPVLYQPHLEALDRRLRVVLKAVRDCVERNGLHSVVDDDLDTEHRAASAR [K338R]
MKMMLVRRFRVLILMVFLVACALHIALDLLPRLERRGARPSGEPGCSCAQPAAEVAAPGWAQVRGRPGEPPAASSAAGDAGWPNKHTLRILQDFSSDPSSNLSSHSLEKLPPAAEPAERALRGRDPGALRPHDPAHRPLLRDPGPRRSESPPGPGGDASLLARLFEHPLYRVAVPPLTEEDVLFNVNSDTRLSPKAAENPDWPHAGAEGAEFLSPGEAAVDSYPNWLKFHIGINRYELYSRHNPAIEALLHDLSSQRITSVAMKSGGTQLKLIMTFQNYGQALFKPMKQTREQETPPDFFYFSDYERHNAEIAAFHLDRILDFRRVPPVAGRMVNMTKEIRDVTRDKKLWRTFFISPANNICFYGECSYYCSTEHALCGKPDQIEGSLAAFLPDLSLAKRKTWRNPWRRSYHKRKKAEWEVDPDYCEEVKQTPPYDSSHRILDVMDMTIFDFLMGNMDRHHYETFEKFGNETFIIHLANGRGFGKYSHDELSILVPLQQCCRIRKSTYLRLQLLAKEEYKLSLLMAESLRGDQVAPVLYQPHLEALDRRLRVVLKAVRDCVERNGLHSVVDDDLDTEHRAASAR [D478A]
